This is an account of results in paper PMC12432127, “Assessing the potential of bacterial signal peptides for radiopharmaceutical applications” (Scientific Reports, 2025).

Residues, ends and D or L forms follow the SMILES beside them. Groups on a side chain read outwards from the residue. No end group written: not given here. *: point of attachment. FITC = O=C1OC2(c3ccc(O)cc3Oc3cc(O)ccc32)c2ccc(NC(=S)*)cc21; DOTA = O=C(O)CN1CCN(CC(=O)O)CCN(CC(=O)*)CCN(CC(=O)O)CC1; Ahx = NCCCCCC(=O)O; For = O=C*

One series in a line: in vivo. Also noted: species or system mice. The settings on record: male, NOD/SCID, mouse, iv, 250 pmol, total radioactivity. Here is the method: (§1) All experiments involving animals were performed in accordance with an animal experimentation license approved by the Zurich Cantonal Veterinary Office, Switzerland (Jason P. Holland; license number ZH095/2023), and in compliance with the […] Animal Welfare Act. This study is reported in accordance with the ARRIVE guidelines (https://arriveguidelines.org). Six to eight-week old male NOD/SCID mice (17-20 g) were obtained from Charles River Laboratories (Lyon, France). Mice were provided with food and water ad libitum. For planar scintigraphy imaging and ex vivo biodistribution studies, mice were injected with 100 μL sterile saline formulations of ~ 250 pmol (~ 10 MBq) [^177Lu]Lu-[…] by intravenous tail-vein injection and anesthetized with isoflurane (2-4% in air). Imaging was performed on Gamma-eye scanner (Bioemtech, Greece) at 5 min and 1 h p.i. Directly after imaging at 1 h p.i., animals were euthanised by isoflurane asphyxiation followed by terminal exsanguination. A total of 13 tissues were removed, rinsed in water, dried in air for approx. 2 min., weighed and counted on a calibrated gamma counter for accumulation of activity. The mass of radiotracer formulation injected into each animal was measured and used to determine the total number of counts per minute (cpm) injected into each mouse by comparison to a standard syringe of known activity and mass.

Details of series [1]: species or system mice. The settings on record: mouse, in vivo, iv. Here is the method:
as §1

Series [2] can be described thus: Stability in human plasma (radio-HPLC). Type of series: in vitro ADME. As to the method: The radiolabelled compound (50 µL) was added to male human AB plasma (500 µL, Sigma Aldrich, USA, male AB) and incubated at 37 °C. Samples of 100 µL were taken at selected time points. The plasma proteins were precipitated with acetonitrile (-20 °C) and the precipitate was centrifuged for 1 min at 1500 rpm. The supernatant was analyzed by analytical radio-HPLC.

A further series addresses T1, FPR1 (Homo sapiens, UniProt P21462).
T1 construct: expressed in transfected cells; host or cells: HEK293T (transient, jetPEI)
T1 sequence (P21462 1-350): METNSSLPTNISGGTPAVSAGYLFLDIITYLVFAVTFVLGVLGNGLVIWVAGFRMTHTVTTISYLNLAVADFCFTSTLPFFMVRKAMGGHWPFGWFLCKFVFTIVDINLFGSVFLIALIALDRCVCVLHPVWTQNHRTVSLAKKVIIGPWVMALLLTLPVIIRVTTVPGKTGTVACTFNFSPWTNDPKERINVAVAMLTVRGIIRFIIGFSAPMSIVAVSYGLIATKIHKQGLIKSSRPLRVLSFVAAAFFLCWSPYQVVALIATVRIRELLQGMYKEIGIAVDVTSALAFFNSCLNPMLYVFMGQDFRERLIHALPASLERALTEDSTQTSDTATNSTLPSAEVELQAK
Nature of the series: Cell internalization of radiotracer, FPR1 transfected HEK293T cells. It is filed as cell-based. The settings on record: 1000-fold excess, all time points. As to the method:
The medium was removed from the wells and replaced by fresh complete growth medium (1.3 mL per well). The inhibitor solution BOC-FLFLF (1000-fold excess against the radiotracer, in PBS/DMSO) was added to the wells in the bottom row (100 µL per well). A solution of PBS and DMSO in the same ratio as the inhibitor solution was added to the wells of the top row (100 µL per well). To each well, the radiotracer solution in the desired concentration was added (100 µL per well). The plate was incubated at 37 °C for the time specified for each experiment. The supernatant was removed, and the cells were placed on ice and rinsed twice with ice cold PBS (1 mL per well). Sodium hydroxide (1 M, 2 × 1 mL) was added to detach the cells and the suspension was collected in counting tubes. The tubes were analyzed with an HIDEX gamma counter (HIDEX, Turku, Finland) using the appropriate detection window for the corresponding radionuclide.

Series [3] addresses T2, f-MVPIK(TAMRA)I bacterial signal peptide derivative.
T2 chain: For-MVPIK(TAMRA)I
Kind of series: confocal fluorescence binding to transfected HEK293T cells.

Series [4] has as its target T3, f-MVPIK(FITC)I bacterial signal peptide derivative.
T3 chain: For-MVPIK(FITC)I
The series is described as above.

The term tissue uptake denotes the percentage of the injected dose found per gram of tissue. Consider `CC[C@H](C)[C@H](NC(=O)[C@H](CCCCNC(=O)CCCCCNC(=O)CN1CCN(CC(=O)O)CCN(CC(=O)O)CCN(CC(=O)O)CC1)NC(=O)[C@@H](NC(=O)[C@@H]1CCCN1C(=O)[C@@H](NC(=O)[C@H](CCSC)NC=O)C(C)C)[C@@H](C)CC)C(=O)O` [[^177Lu]Lu-f-MVPIK(Ahx-DOTA)I, metal not drawn] (For-MVPIK([Ahx-DOTA])I-OH), for which the tissue uptake at 1 h in “in vivo” (biodistribution blood) was 0.12 ± 0.02 %ID/g; in “in vivo” (biodistribution bone) it was 0.75 ± 0.13 %ID/g; in “in vivo” (biodistribution heart) it was 0.09 ± 0.01 %ID/g; in “in vivo” (biodistribution lg intestine) it was 0.32 ± 0.12 %ID/g; in the series “in vivo” (biodistribution lungs), 0.79 ± 0.12 %ID/g; in the series “in vivo” (biodistribution muscle), 0.18 ± 0.03 %ID/g. Moreover, the tissue uptake at 1 h worked out at 0.1 ± 0.02 %ID/g in “in vivo” (biodistribution pancreas); 0.49 ± 0.08 %ID/g in “in vivo” (biodistribution skin); 0.45 ± 0.09 %ID/g in “in vivo” (biodistribution sm intestine); 0.17 ± 0.05 %ID/g in “in vivo” (biodistribution stomach); 3.35 ± 0.19 %ID/g in the series “in vivo” (uptake kidneys); 3.02 ± 0.23 %ID/g in “in vivo” (uptake liver). Moreover, the tissue uptake at 1 h in the series “in vivo” (uptake spleen) turned out to be 4.43 ± 0.38 %ID/g. For the same molecule, in series [1], the “location of administered activity in scintigraphy images” value is “the majority of the administered activity was found in the bladder”. The “residual activity in scintigraphy images” value in series [1] is “only minimal residual activity”. Moreover, the “more hydrophilic fragment (partial degradation)” value in series [2] came out at 24%. The “state of conjugate in human plasma” value in series [2] is given as “completely oxidized”.
On to BOC-FLFLF, for which the “effect of blocking agent on cell-bound activity of the radiotracer” value at FPR1 is on record as “considerably reduced the cell-bound activity”.

B1: FPR1 (protein)
chain: T1 sequence (P21462 1-350)
Usually Kd stands for the constant that tells how readily two partners part at equilibrium. Higher therefore signals lower affinity. Regarding B1, the Kd was determined as 3.8 nM in series [3] and 1.1 nM in series [4].
